Source: the supplement of paper PMC11316812
± gives the standard deviation of the averaged measurements.

Key:
[1] = test system: MCF7; experiment: percentage of EdU-negative (G0-arrested) nuclei per well, 72 h; higher = more G0 arrest; details: reference: sequence is the full UniProt precursor, the tested protein was the secreted form or ectodomain
[2] = test system: hTERT-HMEC; experiment: as above; details: reference: sequence is the full UniProt precursor, the tested protein was the secreted form or ectodomain
[3] = protein concentration 0.01525 µM
[4] = protein concentration 0.1525 µM
[5] = protein concentration 0.0261 µM
[6] = protein concentration 0.02382 µM
[7] = protein concentration 0.03125 µM
[8] = protein concentration 0.2382 µM
[9] = protein concentration 0.3125 µM
[10] = protein concentration 0.0225 µM
[11] = protein concentration 0.0209225 µM
[12] = protein concentration 0.209225 µM
[13] = protein concentration 0.01034 µM
[14] = protein concentration 0.1034 µM
[15] = protein concentration 0.0257143 µM
[16] = protein concentration 0.257143 µM
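Note: secreted proteins added to cultured cells, EdU pulse at the end, nuclei found by Hoechst imaging, EdU status from nuclear versus surrounding ring intensity ratio, PBS as neutral control.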

## MGPGRPAPAPWPRHLLRCVLLLGCLHLGRPGAPGDAALPEPNVFLIFSHGLQGCLEAQGGQVRVTPACNTSLPAQRWKWVSRNRLFNLGTMQCLGTGWPGTNTTASLGMYECDREALNLRWHCRTLGDQLSLLLGARTSNISKPGTLERGDQTRSGQWRIYGSEEDLCALPYHEVYTIQGNSHGKPCTIPFKYDNQWFHGCTSTGREDGHLWCATTQDYGKDERWGFCPIKSNDCETFWDKDQLTDSCYQFNFQSTLSWREAWASCEQQGADLLSITEIHEQTYINGLLTGYSSTLWIGLNDLDTSGGWQWSDNSPLKYLNWESDQPDNPSEENCGVIRTESSGGWQNRDCSIALPYVCKKKPNATAEPTPPDRWANVKVECEPSWQPFQGHCYRLQAEKRSWQESKKACLRGGGDLVSIHSMAELEFITKQIKQEVEELWIGLNDLKLQMNFEWSDGSLVSFTHWHPFEPNNFRDSLEDCVTIWGPEGRWNDSPCNQSLPSICKKAGQLSQGAAEEDHGCRKGWTWHSPSCYWLGEDQVTYSEARRLCTDHGSQLVTITNRFEQAFVSSLIYNWEGEYFWTALQDLNSTGSFFWLSGDEVMYTHWNRDQPGYSRGGCVALATGSAMGLWEVKNCTSFRARYICRQSLGTPVTPELPGPDPTPSLTGSCPQGWASDTKLRYCYKVFSSERLQDKKSWVQAQGACQELGAQLLSLASYEEEHFVANMLNKIFGESEPEIHEQHWFWIGLNRRDPRGGQSWRWSDGVGFSYHNFDRSRHDDDDIRGCAVLDLASLQWVAMQCDTQLDWICKIPRGTDVREPDDSPQGRREWLRFQEAEYKFFEHHSTWAQAQRICTWFQAELTSVHSQAELDFLSHNLQKFSRAQEQHWWIGLHTSESDGRFRWTDGSIINFISWAPGKPRPVGKDKKCVYMTASREDWGDQRCLTALPYICKRSNVTKETQPPDLPTTALGGCPSDWIQFLNKCFQVQGQEPQSRVKWSEAQFSCEQQEAQLVTITNPLEQAFITASLPNVTFDLWIGLHASQRDFQWVEQEPLMYANWAPGEPSGPSPAPSGNKPTSCAVVLHSPSAHFTGRWDDRSCTEETHGFICQKGTDPSLSPSPAALPPAPGTELSYLNGTFRLLQKPLRWHDALLLCESRNASLAYVPDPYTQAFLTQAARGLRTPLWIGLAGEEGSRRYSWVSEEPLNYVGWQDGEPQQPGGCTYVDVDGAWRTTSCDTKLQGAVCGVSSGPPPPRRISYHGSCPQGLADSAWIPFREHCYSFHMELLLGHKEARQRCQRAGGAVLSILDEMENVFVWEHLQSYEGQSRGAWLGMNFNPKGGTLVWQDNTAVNYSNWGPPGLGPSMLSHNSCYWIQSNSGLWRPGACTNITMGVVCKLPRAEQSSFSPSALPENPAALVVVLMAVLLLLALLTAALILYRRRQSIERGAFEGARYSRSSSSPTEATEKNILVSDMEMNEQQE [Q9UBG0]
[1]; [3]
  percentage of EdU-negative: 25.5 ± 1.7%
[1]; [4]
  percentage of EdU-negative: 24.5 ± 0.7%
[2]; [3]
  percentage of EdU-negative: 4.54 ± 0.35%
[2]; [4]
  percentage of EdU-negative: 6.08 ± 1.1%

## MRAPLLPPAPVVLSLLILGSGHYAAGLDLNDTYSGKREPFSGDHSADGFEVTSRSEMSSGSEISPVSEMPSSSEPSSGADYDYSEEYDNEPQIPGYIVDDSVRVEQVVKPPQNKTESENTSDKPKRKKKGGKNGKNRRNRKKKNPCNAEFQNFCIHGECKYIEHLEAVTCKCQQEYFGERCGEKSMKTHSMIDSSLSKIALAAIAAFMSAVILTAVAVITVQLRRQYVRKYEGEAEERKKLRQENGNVHAIA
[1]; [5]
  percentage of EdU-negative: 26.1 ± 0.68%
[1]; protein concentration 0.261 µM
  percentage of EdU-negative: 25.9 ± 1.5%
[2]; [5]
  percentage of EdU-negative: 5.2 ± 0.8%
[2]; protein concentration 0.261 µM
  percentage of EdU-negative: 5.0893 ± 0.0048%

## MQRLCVYVLIFALALAAFSEASWKPRSQQPDAPLGTGANRDLELPWLEQQGPASHHRRQLGPQGPPHLVADPSKKQGPWLEEEEEAYGWMDFGRRSAEDEN
[1]; [6]
  percentage of EdU-negative: 24.94 ± 0.082%
[1]; [7]
  percentage of EdU-negative: 29.3 ± 0.76%
[1]; [8]
  percentage of EdU-negative: 27.1 ± 1.1%
[1]; [9]
  percentage of EdU-negative: 26.7 ± 1.6%
[2]; [6]
  percentage of EdU-negative: 4.78 ± 0.41%
[2]; [7]
  percentage of EdU-negative: 4.9 ± 0.48%
[2]; [8]
  percentage of EdU-negative: 7.18 ± 0.61%
[2]; [9]
  percentage of EdU-negative: 10.5 ± 2%

## MMWPMHTPLLLLTALMVAVAGSASAQSRTLAGGIHATDLNDKSVQCALDFAISEYNKVINKDEYYSRPLQVMAAYQQIVGGVNYYFNVKFGRTTCTKSQPNLDNCPFNDQPKLKEEEFCSFQINEVPWEDKISILNYKCRKV
[1]; [10]
  percentage of EdU-negative: 25.28 ± 0.24%
[1]; protein concentration 0.225 µM
  percentage of EdU-negative: 25.3 ± 2%
[2]; [10]
  percentage of EdU-negative: 4.35 ± 0.28%
[2]; protein concentration 0.225 µM
  percentage of EdU-negative: 6.17 ± 0.2%

## MPGQELRTVNGSQMLLVLLVLSWLPHGGALSLAEASRASFPGPSELHSEDSRFRELRKRYEDLLTRLRANQSWEDSNTDLVPAPAVRILTPEVRLGSGGHLHLRISRAALPEGLPEASRLHRALFRLSPTASRSWDVTRPLRRQLSLARPQAPALHLRLSPPPSQSDQLLAESSSARPQLELHLRPQAARGRRRARARNGDHCPLGPGRCCRLHTVRASLEDLGWADWVLSPREVQVTMCIGACPSQFRAANMHAQIKTSLHRLKPDTVPAPCCVPASYNPMVLIQKTDTGVSLQTYDDLLAKDCHCI
[1]; [11]
  percentage of EdU-negative: 23.8 ± 1.7%
[1]; [12]
  percentage of EdU-negative: 30.5 ± 2.1%
[2]; [11]
  percentage of EdU-negative: 4.78 ± 0.13%
[2]; [12]
  percentage of EdU-negative: 8.07 ± 2.2%

## MALPFALMMALVVLSCKSSCSLGCNLSQTHSLNNRRTLMLMAQMRRISPFSCLKDRHDFEFPQEEFDGNQFQKAQAISVLHEMMQQTFNLFSTKNSSAAWDETLLEKFYIELFQQMNDLEACVIQEVGVEETPLMNEDSILAVKKYFQRITLYLMEKKYSPCAWEVVRAEIMRSLSFSTNLQKRLRRKD
[1]; protein concentration 0.03 µM
  percentage of EdU-negative: 49.17 ± 0.42%
[1]; protein concentration 0.3 µM
  percentage of EdU-negative: 48.8 ± 4.3%
[2]; protein concentration 0.03 µM
  percentage of EdU-negative: 21.5 ± 5.7%
[2]; protein concentration 0.3 µM
  percentage of EdU-negative: 34.2 ± 2.4%

## MKAWGTVVVTLATLMVVTVDAKIYERCELAARLERAGLNGYKGYGVGDWLCMAHYESGFDTAFVDHNPDGSSEYGIFQLNSAWWCDNGITPTKNLCHMDCHDLLNRHILDDIRCAKQIVSSQNGLSAWTSWRLHCSGHDLSEWLKGCDMHVKIDPKIHP [Q96QH8]
[1]; [10]
  percentage of EdU-negative: 25.8 ± 1.2%
[1]; protein concentration 0.225 µM
  percentage of EdU-negative: 25.03 ± 0.22%
[2]; [10]
  percentage of EdU-negative: 6.28 ± 1.5%
[2]; protein concentration 0.225 µM
  percentage of EdU-negative: 7.91 ± 0.26%

## MERPLCSHLCSCLAMLALLSPLSLAQYDSWPHYPEYFQQPAPEYHQPQAPANVAKIQLRLAGQKRKHSEGRVEVYYDGQWGTVCDDDFSIHAAHVVCRELGYVEAKSWTASSSYGKGEGPIWLDNLHCTGNEATLAACTSNGWGVTDCKHTEDVGVVCSDKRIPGFKFDNSLINQIENLNIQVEDIRIRAILSTYRKRTPVMEGYVEVKEGKTWKQICDKHWTAKNSRVVCGMFGFPGERTYNTKVYKMFASRRKQRYWPFSMDCTGTEAHISSCKLGPQVSLDPMKNVTCENGLPAVVSCVPGQVFSPDGPSRFRKAYKPEQPLVRLRGGAYIGEGRVEVLKNGEWGTVCDDKWDLVSASVVCRELGFGSAKEAVTGSRLGQGIGPIHLNEIQCTGNEKSIIDCKFNAESQGCNHEEDAGVRCNTPAMGLQKKLRLNGGRNPYEGRVEVLVERNGSLVWGMVCGQNWGIVEAMVVCRQLGLGFASNAFQETWYWHGDVNSNKVVMSGVKCSGTELSLAHCRHDGEDVACPQGGVQYGAGVACSETAPDLVLNAEMVQQTTYLEDRPMFMLQCAMEENCLSASAAQTDPTTGYRRLLRFSSQIHNNGQSDFRPKNGRHAWIWHDCHRHYHSMEVFTHYDLLNLNGTKVAEGHKASFCLEDTECEGDIQKNYECANFGDQGITMGCWDMYRHDIDCQWVDITDVPPGDYLFQVVINPNFEVAESDYSNNIMKCRSRYDGHRIWMYNCHIGGSFSEETEKKFEHFSGLLNNQLSPQ [Q9Y4K0]
[1]; [13]
  percentage of EdU-negative: 25.4 ± 0.28%
[1]; [14]
  percentage of EdU-negative: 27.7 ± 0.84%
[2]; [13]
  percentage of EdU-negative: 4.4 ± 0.43%
[2]; [14]
  percentage of EdU-negative: 9.13 ± 1.5%

## MALRRSMGRPGLPPLPLPPPPRLGLLLAALASLLLPESAAAGLKLMGAPVKLTVSQGQPVKLNCSVEGMEEPDIQWVKDGAVVQNLDQLYIPVSEQHWIGFLSLKSVERSDAGRYWCQVEDGGETEISQPVWLTVEGVPFFTVEPKDLAVPPNAPFQLSCEAVGPPEPVTIVWWRGTTKIGGPAPSPSVLNVTGVTQSTMFSCEAHNLKGLASSRTATVHLQALPAAPFNITVTKLSSSNASVAWMPGADGRALLQSCTVQVTQAPGGWEVLAVVVPVPPFTCLLRDLVPATNYSLRVRCANALGPSPYADWVPFQTKGLAPASAPQNLHAIRTDSGLILEWEEVIPEAPLEGPLGPYKLSWVQDNGTQDELTVEGTRANLTGWDPQKDLIVRVCVSNAVGCGPWSQPLVVSSHDRAGQQGPPHSRTSWVPVVLGVLTALVTAAALALILLRKRRKETRFGQAFDSVMARGEPAVHFRAARSFNRERPERIEATLDSLGISDELKEKLEDVLIPEQQFTLGRMLGKGEFGSVREAQLKQEDGSFVKVAVKMLKADIIASSDIEEFLREAACMKEFDHPHVAKLVGVSLRSRAKGRLPIPMVILPFMKHGDLHAFLLASRIGENPFNLPLQTLIRFMVDIACGMEYLSSRNFIHRDLAARNCMLAEDMTVCVADFGLSRKIYSGDYYRQGCASKLPVKWLALESLADNLYTVQSDVWAFGVTMWEIMTRGQTPYAGIENAEIYNYLIGGNRLKQPPECMEDVYDLMYQCWSADPKQRPSFTCLRMELENILGQLSVLSASQDPLYINIERAEEPTAGGSLELPGRDQPYSGAGDGSGMGAVGGTPSDCRYILTPGGLAEQPGQAEHQPESPLNETQRLLLLQQGLLPHSSC
[1]; [15]
  percentage of EdU-negative: 25.83 ± 0.093%
[1]; [16]
  percentage of EdU-negative: 27.3 ± 1.4%
[2]; [15]
  percentage of EdU-negative: 3.99 ± 0.11%
[2]; [16]
  percentage of EdU-negative: 5.87 ± 0.091%
